Measurements published in patent US20050208041A1 (Bristol-Myers Squibb, published 2005).
Residue numbers refer to the chain shown, from its start.

T1: purified recombinant IFNAR-1 extracellular fragment (human, UniProt P17181 28-436)
T1 construct: extracellular domain; also called soluble IFNAR-1; soluble IFNAR
T1 sequence (looked up): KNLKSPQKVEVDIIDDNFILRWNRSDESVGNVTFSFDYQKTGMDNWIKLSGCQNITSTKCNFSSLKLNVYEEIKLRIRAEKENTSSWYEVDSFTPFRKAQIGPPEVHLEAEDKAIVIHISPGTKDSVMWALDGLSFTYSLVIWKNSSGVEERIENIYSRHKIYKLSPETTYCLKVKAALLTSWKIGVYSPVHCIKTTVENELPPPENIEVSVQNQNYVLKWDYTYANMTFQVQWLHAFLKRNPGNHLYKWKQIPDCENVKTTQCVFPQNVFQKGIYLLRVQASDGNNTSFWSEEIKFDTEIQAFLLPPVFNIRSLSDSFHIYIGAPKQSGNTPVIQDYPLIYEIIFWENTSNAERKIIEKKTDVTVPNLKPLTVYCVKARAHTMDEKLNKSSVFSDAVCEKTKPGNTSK

B1: M3-11 (X = K) heavy chain with K1 light chain (antibody, V domains shown)
VH: EVQLLESGGGLVQPGGSLRLSCAFSGFTLSTSGMGIGWVRQAPGKGLEWVAHIWWDDDKYYNPSLKSRFTISRDTSKNTVYLQMNSLRAEDTAVYYCARNYYPYDAWFDKWGQGTLVTVS
VL: DIQMTQSPSSLSASVGDRVTITCSASSSINSNHLHWYQQKPGKAPKLLIYRTSILASGVPSRFSGSGSGTSFTLTISSLQPEDFATYYCQQGSNIPFTFGQGTKVEIK
notes: Position counted within VH CDR3; also called M3-11 K
B2: M3-11 (X = D) heavy chain with K1 light chain (antibody, V domains shown)
VH: B1 VH with K110D
VL: B1 VL
notes: Position counted within VH CDR3; also called M3-11 D
B3: M3-11 (X = W) heavy chain with K1 light chain (antibody, V domains shown)
VH: B1 VH with K110W
VL: B1 VL
notes: Position counted within VH CDR3; also called M3-11 W
B4: M3-11 (X = Q) heavy chain with K1 light chain (antibody, V domains shown)
VH: B1 VH with K110Q
VL: B1 VL
notes: Position counted within VH CDR3; also called M3-11 Q
B5: M3-11 (X = T) heavy chain with K1 light chain (antibody, V domains shown)
VH: B1 VH with K110T
VL: B1 VL
notes: Position counted within VH CDR3; also called M3-11 T
B6: M3-11 (X = E) heavy chain with K1 light chain (antibody, V domains shown)
VH: B1 VH with K110E
VL: B1 VL
notes: Position counted within VH CDR3; also called M3-11 E
B7: M3-11 (X = H) heavy chain with K1 light chain (antibody, V domains shown)
VH: B1 VH with K110H
VL: B1 VL
notes: Position counted within VH CDR3; also called M3-11 H
B8: M3-11 (X = S) heavy chain with K1 light chain (antibody, V domains shown)
VH: B1 VH with K110S
VL: B1 VL
notes: Position counted within VH CDR3; also called M3-11 S
B9: M3-11 (X = C) heavy chain with K1 light chain (antibody, V domains shown)
VH: B1 VH with K110C
VL: B1 VL
notes: Position counted within VH CDR3; also called M3-11 C
B10: M3-11 (X = G) heavy chain with K1 light chain (antibody, V domains shown)
VH: B1 VH with K110G
VL: B1 VL
notes: Position counted within VH CDR3; also called M3-11 G
B11: M3-11 (X = V) heavy chain with K1 light chain (antibody, V domains shown)
VH: B1 VH with K110V
VL: B1 VL
notes: Position counted within VH CDR3; also called M3-11 V
B12: M3-11 (X = I) heavy chain with K1 light chain (antibody, V domains shown)
VH: B1 VH with K110I
VL: B1 VL
notes: Position counted within VH CDR3; also called M3-11 I
B13: M3-11 (X = F) heavy chain with K1 light chain (antibody, V domains shown)
VH: B1 VH with K110F
VL: B1 VL
notes: Position counted within VH CDR3; also called M3-11 F
B14: M3-11 (X = L) heavy chain with K1 light chain (antibody, V domains shown)
VH: B1 VH with K110L
VL: B1 VL
notes: the position is counted within CDR3, not on the entry; also called M3-11 L
B15: M3-11 (X = A) heavy chain with K1 light chain (antibody, V domains shown)
VH: B1 VH with K110A
VL: B1 VL
notes: Position counted within VH CDR3; also called M3-11 A
B16: M3-11 (X = R) heavy chain with K1 light chain (antibody, V domains shown)
VH: B1 VH with K110R
VL: B1 VL
notes: Position counted within VH CDR3; also called M3-11 R
B17: M3-4 (X = S) heavy chain with K1 light chain (antibody, V domains shown)
VH: B1 VH with P103S, K110Y
VL: B1 VL
notes: Position counted within VH CDR3; also called M3-4 S
B18: M3-4 (X = N) heavy chain with K1 light chain (antibody, V domains shown)
VH: B1 VH with P103N, K110Y
VL: B1 VL
notes: Position counted within VH CDR3; also called M3-4 N
B19: M3-4 (X = T) heavy chain with K1 light chain (antibody, V domains shown)
VH: B1 VH with P103T, K110Y
VL: B1 VL
notes: Position counted within VH CDR3; also called M3-4 T
B20: M3-4 (X = R) heavy chain with K1 light chain (antibody, V domains shown)
VH: B1 VH with P103R, K110Y
VL: B1 VL
notes: Position counted within VH CDR3; also called M3-4 R
B21: M3-4 (X = M) heavy chain with K1 light chain (antibody, V domains shown)
VH: B1 VH with P103M, K110Y
VL: B1 VL
notes: Position counted within VH CDR3; also called M3-4 M
B22: M3-4 (X = W) heavy chain with K1 light chain (antibody, V domains shown)
VH: B1 VH with P103W, K110Y
VL: B1 VL
notes: Position counted within VH CDR3; also called M3-4 W
B23: M3-4 (X = V) heavy chain with K1 light chain (antibody, V domains shown)
VH: B1 VH with P103V, K110Y
VL: B1 VL
notes: Position counted within VH CDR3; also called M3-4 V
B24: DI M3 heavy chain with K1 light chain (antibody, human IgG4, V domains shown)
VH: B1 VH with F24A, L29M, V39I, A42T, R73K, V80L, K110Y
VL: DIQMTQSPSSLSASVGDRVTITCSASSSINSNHLHWYQQKPGKAPKLLIYRTSILASGVPSRFSGSGSGTSFTLTISSLQPEDFATYYCQQGSNIPFTFGQGTKVEIKR
notes: also called DI M3 K1
B25: DI M3 heavy chain with K1-C light chain (antibody, V domains shown)
VH: B1 VH with F24A, L29M, V39I, A42T, R73K, V80L, K110Y
VL: B24 VL with S27T
notes: also called DI M3 K1-C
B26: DI M3-B heavy chain with DI K1-C light chain (antibody, V domains shown)
VH: B1 VH with F24A, L29M, V39I, A42T, S67A, V80L, K110Y
VL: B24 VL with S27T, Q38L, L47A, V59I, S71D, F84T
notes: also called DI M3-B DI K1-C
B27: M3 heavy chain with DI K1-C light chain (antibody, V domains shown)
VH: B1 VH with K110Y
VL: B24 VL with S27T, Q38L, L47A, V59I, S71D, F84T
notes: also called M3 DI K1-C
B28: DI M3-B heavy chain with K1 light chain (antibody, V domains shown)
VH: B1 VH with F24A, L29M, V39I, A42T, S67A, V80L, K110Y
VL: B24 VL
notes: also called DI M3-B K1
B29: DI M3-B heavy chain with DI K1 light chain (antibody, V domains shown)
VH: B1 VH with F24A, L29M, V39I, A42T, S67A, V80L, K110Y
VL: B24 VL with V19A, Q38L, L47A, V59I, S71D, F84T
notes: also called DI M3-B DI K1
B30: DI M3 heavy chain with DI K1-C light chain (antibody, V domains shown)
VH: B1 VH with F24A, L29M, V39I, A42T, R73K, V80L, K110Y
VL: B24 VL with S27T, Q38L, L47A, V59I, S71D, F84T
notes: also called DI M3 DI K1-C
B31: M3-B heavy chain with DI K1 light chain (antibody, V domains shown)
VH: B1 VH with S67A, K110Y
VL: B24 VL with V19A, Q38L, L47A, V59I, S71D, F84T
notes: also called M3-B DI K1
B32: M3-B heavy chain with DI K1-C light chain (antibody, V domains shown)
VH: B1 VH with S67A, K110Y
VL: B24 VL with S27T, Q38L, L47A, V59I, S71D, F84T
notes: also called M3-B DI K1-C
B33: M3 heavy chain with K1-C light chain (antibody, human IgG4, V domains shown)
VH: B1 VH with K110Y
VL: B24 VL with S27T
notes: also called M3 K1-C

Molecular target: T1, purified recombinant IFNAR-1 …
Test: Biacore, maximal association on IFNAR-1 relative to M3K1
Excerpt: (§1) Pools 4 and 11 were selected for further study and the individual antibodies in each pool were produced and expressed separately. The sequences of these individual antibodies were as shown in SEQ ID NO:12 of FIG. 1F and SEQ ID NO: 13 of FIG. 1G. The data is presented as maximal association relative to M3K1. […]

Binder | % activity relative to M3K1 [%]
B1 | 82
B2 | 67
B3 | 70
B4 | 73
B5 | 82
B6 | 105
B7 | 104
B8 | 39
B9 | 64
B10 | 63
B11 | 108
B12 | 81
B13 | 93
B14 | 75
B15 | 93
B16 | 220

Molecular target: T1, purified recombinant IFNAR-1 …
Test: as above
Remark: another data set of the same source
Excerpt: as §1

Binder | % activity relative to M3K1 [%]
B17 | 110
B18 | 49
B19 | 103
B20 | 106
B21 | 101
B22 | 93
B23 | 122

Molecular target: T1, purified recombinant IFNAR-1 …
Test: Biacore, antibody on immobilized soluble IFNAR-1, maximal response, mean of four
Method: Additional combination variants heavy chain DI M3-B and light chain DI K1-C were also made. These combination variants were also tested for binding to IFNAR-1. […] Binding analysis was done by Biacore, with the antibody bound to immobilized soluble IFNAR-1. Maximal response was determined at two concentrations and values shown are mean of four determinations.

Binder | % response relative to H3K1 [%]
B24 | 149
B25 | 96
B26 | 9
B27 | 17
B28 | 122
B29 | 11
B30 | 4
B31 | 17
B32 | 14
B33 | 100

Molecular target: T1, purified recombinant IFNAR-1 …
Test: Biacore, response on IFNAR-1 (flow cell 2) divided by response on anti-human IgG Fc (flow cell 4)
Excerpt: A series of antibodies were constructed with reduced numbers of potential T-cell epitopes. These included heavy chain variants M3-A and M3-B in which residues were changed in CDR regions and DI M3 in which framework residues were altered. De-immunized light chains were also constructed termed K1-C, K1-D, K1-E and DI K1. The antibodies were expressed and purified before analysis by Biacore. A Biacore chip was used with IFNAR-1 coated on Flow cell 2 at 690 RU and anti-human IgG Fc on flow cell 4 at 5000 RU. Binding of the antibody to IFNAR-1 relative to anti-human IgG Fc was determined by the ratio of response at flow cell 2 divided by flow cell 4 (Fc2/Fc4).

Binder | % activity relative to H3K1 [%] | Fc2/Fc4
B24 | 137 | 0.41
B33 | 97 | 0.29
